Source: patent CN112500481A (SHANXI PROVINCIAL PEOPLES HOSPITAL, dated 2021)

How the values were obtained:
新冠病毒RBD抗原 (表达的RBD蛋白) = 新冠病毒RBD抗原 (表达的RBD蛋白) (SARS-CoV-2, UniProt P0DTC2 319-541)
RBD-tag1 = RBD-tag1 (SARS-CoV-2, UniProt P0DTC2 319-541)

B1: 23D52 (antibody, V domains shown)
VH: EVQLVESGGGLVQPGGSLRLSCAASGITVSSNYMNWVRQAPGKGLEWVSVLYSGGSTDYADSVKGRFTISRDNSKNTLYLQMNSLRAEDTAVYYCARDLVVYGMDVWGQGTTVTVSS
VL: DIQLTQSPSFLSASVGDRVTITCRASQGISSYLAWYQQTPGKAPKLLIYAASTLQSGVPSRFSGSGSGTEFTLTISSLQPEDFATYYCQQLNSYPFTFGPGTKVHIK
notes: also called 抗人新冠病毒抗体23D52
EC50 (新冠病毒RBD抗原 (表达的RBD蛋白)): 0.0299 µg/mL | IC50 (RBD-tag1): 0.111 µg/mL
